For test [1], the target named is T1, human FcRI protein (MednaBio, E1031) (human, UniProt P12314 16-288, limits assumed).
T1 construct: Bought; loaded on anti-penta-HIS biosensors; also called FcγRI
Kind of test: BLI. The procedure, abridged:
(§1)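 On an Octet Red96 System, anti-penta-HIS biosensors loaded with commercial human Fc receptor proteins were dipped into test IgG diluted 1:3 over 8 points from 300 nM. Fcγ receptor runs used pH 7.2 and FcRn runs used pH 6. Global fitting of these biolayer interferometry data gave the values for Kd, kon and koff, using a 1:1 binding model.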

Test [2] concerns the target T2, human FcRIIA protein (MednaBio, E1033) (human, UniProt P12318 34-218, limits assumed).
T2 construct: Bought; also called FcγRIIA
T2 sequence (looked up): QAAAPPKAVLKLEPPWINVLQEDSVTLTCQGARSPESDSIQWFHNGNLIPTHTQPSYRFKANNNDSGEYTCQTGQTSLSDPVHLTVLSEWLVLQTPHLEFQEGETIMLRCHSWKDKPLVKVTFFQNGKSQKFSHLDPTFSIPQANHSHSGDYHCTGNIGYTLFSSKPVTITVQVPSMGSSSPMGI
Kind of test: BLI. Put shortly:
as §1

Test [3] has as its target T3, human FcRIIB/C protein (MednaBio, E1034) (human, UniProt P31994 43-217, limits assumed).
T3 construct: Bought as FcRIIB/C; also called FcγRIIB; CD32B
T3 sequence (looked up): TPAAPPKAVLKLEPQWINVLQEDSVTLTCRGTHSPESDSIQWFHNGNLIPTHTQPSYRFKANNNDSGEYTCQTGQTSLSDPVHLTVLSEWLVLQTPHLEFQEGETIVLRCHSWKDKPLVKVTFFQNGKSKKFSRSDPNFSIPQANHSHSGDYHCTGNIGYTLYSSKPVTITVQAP
Kind of test: BLI. The procedure, abridged: as §1

The target of test [4] is T4, human FcRIIIA-F158 protein (MednaBio, E1036) (human, UniProt P08637 17-208).
T4 construct: Bought; also called FcγRIIIA(F)
Kind of test: BLI. Put shortly:
as §1

Test [5] deals with T5, human FcRIIIA-V158 protein (MednaBio, E1035) (human, UniProt P08637 17-208).
T5 construct: Bought; also called FcγRIIIA(V); FcgRIIIA(V)
Kind of test: BLI. Put shortly:
as §1

The target in test [6] is T6, human FcRIIIB protein (MednaBio, E1037) (human, UniProt O75015 17-200).
T6 construct: Bought; also called FcγRIIIB; FcgRIIIB
As to the kind of experiment: BLI. The procedure, abridged: as §1

Test [7] has as its target T7, human FcRn protein (MednaBio, E1032) (human, UniProt P55899 24-297; P61769 21-119).
T7 construct: Bought; assays at pH 6
Kind of test: BLI. Put shortly: as §1

For test [8], the target named is T8, human FcγRIIC expressed on CHO cells (human, UniProt P31995 43-323).
T8 construct: whole, on cells
T8 sequence (looked up): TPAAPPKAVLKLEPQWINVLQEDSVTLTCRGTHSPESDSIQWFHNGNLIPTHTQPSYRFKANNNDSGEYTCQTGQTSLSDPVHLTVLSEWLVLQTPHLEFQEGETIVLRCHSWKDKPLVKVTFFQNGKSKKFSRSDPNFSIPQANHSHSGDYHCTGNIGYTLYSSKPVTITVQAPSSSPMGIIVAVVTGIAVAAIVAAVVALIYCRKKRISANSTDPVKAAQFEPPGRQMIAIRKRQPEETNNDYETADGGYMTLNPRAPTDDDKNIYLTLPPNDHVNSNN
As to the kind of experiment: FACS, CHO cells expressing FcγRIIC. As to the method:
FIGS. 1A-1W are charts showing binding activity of various IgG variants as indicated to different types of Fcγ receptors expressed on CHO-K1 cells at the various concentrations as indicated. The concentrations of each IgG variant, from left to right, are 0 μg/ml, 0.3 μg/ml, 1 μg/ml, 3 μg/ml, and 10 μg/ml in FIGS. 1A-1C, 1E-J, 1L-1M, 1P-1R, and 1T-1V. For FIGS. 1D, 1K, 10, 1S, and 1w the bars, from left to right, correspond to the following concentrations of IgG variant: 0.3 μg/ml, 1 μg/ml, 3 μg/ml, and 10 μg/ml.
(§2) For FACS analysis of the IgG mutants' binding to different FcγRs, FcγR overexpressing CHO cells were harvested using trypsin-EDTA and were suspended in cold staining buffer (3% BSA in PBS). Test IgG mutants, which were diluted in staining buffer, were added into the cells. The mixture was incubated 4° C. for 2 hours, and then washed twice with cold staining buffer and re-suspended in PE-labeled anti-human IgG followed by incubation at 4° C. for 2 hours. The mixture was washed twice with staining buffer and re-suspended in 2% PFA in PBS for FACS.

In test [9] the target is T7, human FcRn protein (MednaBio, E1032). As to the kind of experiment: BLI. Put shortly:
as §1
The source holds these as a separate data set.

Test [10] has as its target T9, human FcγRI expressed on CHO cells (human, UniProt P12314 16-374).
T9 construct: whole, on cells
Kind of test: FACS, CHO cells expressing FcγRI. As to the method:
as §2

Test [11] addresses T1, human FcRI protein (MednaBio, E1031). Kind of test: BLI. As to the method: (§3) These IgG mutants were tested for binding to a panel of human Fc receptors (FcRs), including FcRn, using the Octet Red96 System (ForteBio, Model #Red96). Human FcR proteins were purchased commercially (FcRn, MednaBio, E1032; FcRI, MednaBio, E1031; FcRIIA, MednaBio, E1033; FcRIIB/C, MednaBio, E1034; FcRIIIA-F158, MednaBio, E1036; FcRIIIA-V158, MednaBio, E1035; FcRIIIB, MednaBio, E1037). All Fey receptor assays were performed at pH 7.2; all FcRn assays were performed at pH 6. The Fey receptors were loaded onto anti-penta-HIS1K (ForteBio, Cat #18-5122) biosensors at a concentration of 20 μg/mL. The loaded biosensors was then be dipped into an 8-point 1:3 dilution series of the test IgG molecules (including controls and the mutants described herein) in PBS with 0.1% BSA, 0.02% Tween-20 (pH 7.2) at a starting concentration of 300 nM. Kinetic analysis was performed using a 1:1 binding model and global fitting.
The source holds these as a separate data set.

The target in test [12] is T2, human FcRIIA protein (MednaBio, E1033). As to the kind of experiment: BLI. As to the method:
as §3
The source holds these as a separate data set.

Test [13] deals with T3, human FcRIIB/C protein (MednaBio, E1034). Kind of test: BLI. As to the method:
as §3
The source holds these as a separate data set.

The target in test [14] is T4, human FcRIIIA-F158 protein (MednaBio, …). As to the kind of experiment: BLI. As to the method: as §3
The source holds these as a separate data set.

In test [15] the target is T5, human FcRIIIA-V158 protein (MednaBio, …). Kind of test: BLI. As to the method:
as §3
The source holds these as a separate data set.

Test [16] addresses T6, human FcRIIIB protein (MednaBio, E1037). Kind of test: BLI. As to the method:
as §3
The source holds these as a separate data set.

In test [17] the target is T7, human FcRn protein (MednaBio, E1032). As to the kind of experiment: BLI. As to the method: as §3
The source holds these as a separate data set.

Like-named read-outs stand apart in the source and are kept apart here.

T7 sequence (P55899 24-297 limits assumed, form in doubt, chain 1 of 2): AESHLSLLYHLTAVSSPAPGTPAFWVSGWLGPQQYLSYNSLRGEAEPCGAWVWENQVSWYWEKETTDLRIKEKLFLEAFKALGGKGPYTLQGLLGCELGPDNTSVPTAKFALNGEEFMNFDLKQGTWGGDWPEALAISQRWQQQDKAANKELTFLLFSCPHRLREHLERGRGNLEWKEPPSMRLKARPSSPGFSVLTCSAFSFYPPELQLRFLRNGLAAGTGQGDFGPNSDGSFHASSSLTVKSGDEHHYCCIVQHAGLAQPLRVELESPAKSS
T7 sequence (P61769 21-119 limits assumed, form in doubt, chain 2 of 2): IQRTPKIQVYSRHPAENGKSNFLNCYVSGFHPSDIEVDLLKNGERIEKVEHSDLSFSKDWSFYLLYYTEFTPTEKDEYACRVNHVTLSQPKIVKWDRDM
T5 sequence (P08637 17-208 F176V): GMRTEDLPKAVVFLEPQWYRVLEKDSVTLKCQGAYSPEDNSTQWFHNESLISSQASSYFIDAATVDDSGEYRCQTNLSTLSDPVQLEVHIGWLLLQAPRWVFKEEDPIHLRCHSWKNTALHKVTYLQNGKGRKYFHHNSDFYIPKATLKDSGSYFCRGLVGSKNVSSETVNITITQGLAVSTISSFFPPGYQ
T4 sequence (P08637 17-208 limits assumed): as the sequence (P08637 17-208 F176V) above, with V160F counted along it
T6 sequence (O75015 17-200 limits assumed): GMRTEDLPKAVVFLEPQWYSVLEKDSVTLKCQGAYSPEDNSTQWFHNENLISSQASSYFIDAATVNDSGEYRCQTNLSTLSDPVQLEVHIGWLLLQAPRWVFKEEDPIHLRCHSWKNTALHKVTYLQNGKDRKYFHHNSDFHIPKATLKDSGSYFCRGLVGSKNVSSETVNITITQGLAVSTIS
T1 sequence (P12314 16-288 limits assumed): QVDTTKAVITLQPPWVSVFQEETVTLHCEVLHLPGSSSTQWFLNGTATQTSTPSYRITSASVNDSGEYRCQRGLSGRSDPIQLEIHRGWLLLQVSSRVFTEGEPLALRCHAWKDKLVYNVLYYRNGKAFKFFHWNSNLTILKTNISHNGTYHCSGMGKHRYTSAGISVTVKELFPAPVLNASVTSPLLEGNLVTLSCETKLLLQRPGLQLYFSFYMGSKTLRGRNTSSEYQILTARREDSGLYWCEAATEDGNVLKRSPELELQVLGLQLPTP
T9 sequence (P12314 16-374): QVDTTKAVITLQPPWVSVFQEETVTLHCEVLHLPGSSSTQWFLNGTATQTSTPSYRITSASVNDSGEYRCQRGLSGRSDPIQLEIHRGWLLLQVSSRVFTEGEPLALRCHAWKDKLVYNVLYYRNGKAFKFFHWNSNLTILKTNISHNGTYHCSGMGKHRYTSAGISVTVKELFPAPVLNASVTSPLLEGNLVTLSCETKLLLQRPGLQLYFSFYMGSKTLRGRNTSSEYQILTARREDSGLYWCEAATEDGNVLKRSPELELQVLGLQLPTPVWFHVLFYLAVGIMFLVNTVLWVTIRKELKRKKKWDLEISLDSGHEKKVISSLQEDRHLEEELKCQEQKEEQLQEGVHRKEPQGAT

B1: anti-CD137 IgG1 with Fc variant G1m9 (antibody)
heavy: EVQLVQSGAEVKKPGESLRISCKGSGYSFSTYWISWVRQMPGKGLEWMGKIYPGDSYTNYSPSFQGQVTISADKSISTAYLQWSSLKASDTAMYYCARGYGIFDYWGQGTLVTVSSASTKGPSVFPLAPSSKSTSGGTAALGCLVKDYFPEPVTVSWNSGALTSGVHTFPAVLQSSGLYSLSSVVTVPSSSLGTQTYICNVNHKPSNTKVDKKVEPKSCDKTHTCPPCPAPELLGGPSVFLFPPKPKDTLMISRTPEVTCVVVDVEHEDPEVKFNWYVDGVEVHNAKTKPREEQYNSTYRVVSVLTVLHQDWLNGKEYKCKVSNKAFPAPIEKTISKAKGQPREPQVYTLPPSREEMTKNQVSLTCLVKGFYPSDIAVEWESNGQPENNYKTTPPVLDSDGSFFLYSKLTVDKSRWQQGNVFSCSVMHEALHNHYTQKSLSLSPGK
light: SYELTQPPSVSVSPGQTASITCSGDNIGDQYAHWYQQKPGQSPVLVIYQDKNRPSGIPERFSGSNSGNTATLTISGTQAMDEADYYCATYTGFGSLAVFGGGTKLTVLGQPKAAPSVTLFPPSSEELQANKATLVCLISDFYPGAVTVAWKADSSPVKAGVETTTPSKQSNNKYAASSYLSLTPEQWKSHRSYSCQVTHEGSTVEKTVAPTECS
notes: copies: 2 + 2
In the case of B1, the Kd in test [1] is 3.1 nM; in test [2], 680 nM; in test [3], 25 nM; in test [4], 180 nM; in test [5], 86 nM; in [7], 19.1 nM. In addition, the koff in test [1] was 0.0016 s⁻¹; in [2] it was 0.13 s⁻¹; in test [3], 0.0051 s⁻¹; in test [4], 0.091 s⁻¹; in test [5], 0.1 s⁻¹; in test [7] it was 0.0116 s⁻¹. For the same molecule, the kon in [1] is 510000 M⁻¹ s⁻¹; in test [2] it was 180000 M⁻¹ s⁻¹; in test [3], 200000 M⁻¹ s⁻¹; in [4] it was 520000 M⁻¹ s⁻¹; in test [5] it was 1.2e+06 M⁻¹ s⁻¹; in [7] it was 607000 M⁻¹ s⁻¹. In addition, the binding result in test [6] is reported as “no binding (tested: 300 nM)”; in test [8], “binds”.

B2: anti-CD137 IgG4 with Fc variant G4m18 (antibody)
heavy: EVQLVQSGAEVKKPGESLRISCKGSGYSFSTYWISWVRQMPGKGLEWMGKIYPGDSYTNYSPSFQGQVTISADKSISTAYLQWSSLKASDTAMYYCARGYGIFDYWGQGTLVTVSSASTKGPSVFPLAPCSRSTSESTAALGCLVKDYFPEPVTVSWNSGALTSGVHTFPAVLQSSGLYSLSSVVTVPSSSLGTKTYTCNVDHKPSNTKVDKRVESKYGPPCPPCPAPEFLSVFLFPPKPKDTLMISRTPEVTCVVVDVSQEDPEVQFNWYVDGVEVHNAKTKPREEQFNSTYRVVSVLTVLHQDWLNGKEYKCKVSNKGFPSSIEKTISKAKGQPREPQVYTLPPSQEEMTKNQVSLTCLVKGFYPSDIAVEWESNGQPENNYKTTPPVLDSDGSFFLYSRLTVDKSRWQEGNVFSCSVMHEALHNHYTQKSLSLSLGK
light: B1 light
notes: copies: 2 + 2
For B2, in test [9], binding was put at a Kd of 11 nM, the koff turned out to be 0.0068 s⁻¹ and the kon turned out to be 610000 M⁻¹ s⁻¹. Besides, the binding result in test [10] is listed as “binds”.

B3: anti-CD137 IgG1 with Fc variant G1m1 (antibody)
heavy: EVQLVQSGAEVKKPGESLRISCKGSGYSFSTYWISWVRQMPGKGLEWMGKIYPGDSYTNYSPSFQGQVTISADKSISTAYLQWSSLKASDTAMYYCARGYGIFDYWGQGTLVTVSSASTKGPSVFPLAPSSKSTSGGTAALGCLVKDYFPEPVTVSWNSGALTSGVHTFPAVLQSSGLYSLSSVVTVPSSSLGTQTYICNVNHKPSNTKVDKKVEPKSCDKTHTCPPCPAPELLSVFLFPPKPKDTLMISRTPEVTCVVVDVSHEDPEVKFNWYVDGVEVHNAKTKPREEQYNSTYRVVSVLTVLHQDWLNGKEYKCKVSNKALPAPIEKTISKAKGQPREPQVYTLPPSREEMTKNQVSLTCLVKGFYPSDIAVEWESNGQPENNYKTTPPVLDSDGSFFLYSKLTVDKSRWQQGNVFSCSVMHEALHNHYTQKSLSLSPGK
light: B1 light
notes: copies: 2 + 2
B3: the Kd in test [11] came out at 200 nM; in test [12], 440 nM; in test [14] it was 300 nM; in test [17], 11 nM. The koff in test [11] worked out at 0.13 s⁻¹; in [12] it was 0.11 s⁻¹; in test [14] it was 0.1 s⁻¹; in test [17], 0.0078 s⁻¹. In addition, the kon is 650000 M⁻¹ s⁻¹ in [11], 250000 M⁻¹ s⁻¹ in [12], 350000 M⁻¹ s⁻¹ in test [14] and 700000 M⁻¹ s⁻¹ in test [17]. Moreover, the binding result in test [13] is “no binding (tested: 300 nM)”; in test [15], “no binding (tested: 300 nM)”; in test [16] it was “no binding (tested: 300 nM)”; in [8], “no binding (tested: 10 ug/ml)”.

B4: anti-CD137 IgG2 with Fc variant G2m2 (antibody)
heavy: EVQLVQSGAEVKKPGESLRISCKGSGYSFSTYWISWVRQMPGKGLEWMGKIYPGDSYTNYSPSFQGQVTISADKSISTAYLQWSSLKASDTAMYYCARGYGIFDYWGQGTLVTVSSASTKGPSVFPLAPCSRSTSESTAALGCLVKDYFPEPVTVSWNSGALTSGVHTFPAVLQSSGLYSLSSVVTVPSSNFGTQTYTCNVDHKPSNTKVDKTVERKCCVECPPCPAPPFLGGPSVFLFPPKPKDTLMISRTPEVTCVVVDVSHEDPEVQFNWYVDGVEVHNAKTKPREEQFNSTFRVVSVLTVVHQDWLNGKEYKCKVSNKGLPAPIEKTISKTKGQPREPQVYTLPPSREEMTKNQVSLTCLVKGFYPSDIAVEWESNGQPENNYKTTPPMLDSDGSFFLYSKLTVDKSRWQQGNVFSCSVMHEALHNHYTQKSLSLSPGK
light: B1 light
notes: copies: 2 + 2
B4: the Kd turned out to be 2 nM in [11]; 68 nM in test [12]; 160 nM in test [13]; 250 nM in test [14]; 160 nM in test [15]; 10 nM in [17]. For the same molecule, the koff in test [11] worked out at 0.00091 s⁻¹; in test [12], 0.057 s⁻¹; in test [13], 0.099 s⁻¹; in [14], 0.07 s⁻¹; in [15], 0.033 s⁻¹; in test [17], 0.0091 s⁻¹. The kon in [11] was determined as 440000 M⁻¹ s⁻¹; in [12], 840000 M⁻¹ s⁻¹; in test [13] it was 620000 M⁻¹ s⁻¹; in test [14], 280000 M⁻¹ s⁻¹; in test [15], 210000 M⁻¹ s⁻¹; in [17] it was 900000 M⁻¹ s⁻¹. Moreover, the binding result in test [16] is “no binding (tested: 300 nM)”.

These data come from patent publication US20200392227A1 (LYVGEN BIOPHARMA, published 2020).
